Test results from PMC4644235 (Cell, 2015).

T1: Sac3(222-572) (S. cerevisiae, UniProt P46674 222-572)
T1 sequence: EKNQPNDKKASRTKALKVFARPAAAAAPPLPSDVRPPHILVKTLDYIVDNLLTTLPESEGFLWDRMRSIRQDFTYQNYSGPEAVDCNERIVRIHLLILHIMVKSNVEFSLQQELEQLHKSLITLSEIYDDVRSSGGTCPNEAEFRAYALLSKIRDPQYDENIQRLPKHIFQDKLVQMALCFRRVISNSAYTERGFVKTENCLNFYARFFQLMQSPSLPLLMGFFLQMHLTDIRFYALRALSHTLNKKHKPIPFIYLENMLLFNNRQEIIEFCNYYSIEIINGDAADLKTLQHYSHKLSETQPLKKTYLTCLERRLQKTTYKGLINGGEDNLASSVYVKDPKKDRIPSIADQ

B1: Thp1(170-455) (domain or fragment)
chain: GKQRILLYLVNKLNNIYFRIESPQLCSNIFKNFQPKSMLAHFNEYQLDQQIEYRYLLGRYYLLNSQVHNAFVQFNEAFQSLLNLPLTNQAITRNGTRILNYMIPTGLILGKMVKWGPLRPFLSQETIDNWSVLYKHVRYGNIQGVSLWLRQNERHLCARQLLIVLLEKLPMVTYRNLIKTVIKSWTTEWGQNKLPYSLIERVLQLSIGPTFEDPGAQEITIYNGIHSPKNVENVLVTLINLGLLRANCFPQLQLCVVKKTTMIQEIVPPVNERITKMFPAHSHVLW

Experiments:
Thp1(170-455) = biological target: B1; assay: crystal structure
Sac3(222-572) = biological target: T1, Sac3(222-572); assay: crystal structure

binding result (Thp1(170-455))	binding result (Sac3(222-572))	Binder
binds	–	Sem1 (natural protein) MSTDVAAAQAQSKIDLTKKKNEEINKKSLEEDDEFEDFPIDTWANGETIKSNAVTQTNIWEENWDDVEVDDDFTNELKAELDRYKRENQ
–	binds	B1
